Laboratory results taken from PMC9482650, “Quantitative fragmentomics allow affinity mapping of interactomes” (Nature Communications, 2022).
Residue numbers refer to the chain shown, from its start.

Molecular target: GRIP2_5, Q9C0E4
Assay: holdup assay
Design: key: below the threshold = too weak to quantify, mostly under pKd 3.1 to 4
Details: plain residues with an end cap or a label only (N-terminal biotin on a linker: ado-ado)

GRIP2_5, Q9C0E4, sequence (Q9C0E4 544-642): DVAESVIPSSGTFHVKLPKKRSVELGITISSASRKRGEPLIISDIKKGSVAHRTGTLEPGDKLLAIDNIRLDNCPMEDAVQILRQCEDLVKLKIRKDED

Binder	pKd
SRSVVESDEL [MYPN, Q86TC9]	below the threshold
KRPEMTSSSV [MUC3A, MUC3B, Q02505;Q9H195]	below the threshold

Molecular target: T1, SNTG2, Q9NY99
T1 sequence (Q9NY99 68-166, limits assumed, looked up): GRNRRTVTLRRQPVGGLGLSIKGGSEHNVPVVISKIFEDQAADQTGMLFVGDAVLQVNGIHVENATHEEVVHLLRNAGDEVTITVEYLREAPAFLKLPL
Assay: holdup assay
Design: key: below the threshold = too weak to quantify, mostly under pKd 3.1 to 4
Details: plain residues with an end cap or a label only (N-terminal biotin on a linker: ado-ado)

Binder	pKd
SRSVVESDEL [MYPN, Q86TC9]	below the threshold

Molecular target: T2, APBA1_2, Q02410
T2 sequence (Q02410 742-832, limits assumed, looked up): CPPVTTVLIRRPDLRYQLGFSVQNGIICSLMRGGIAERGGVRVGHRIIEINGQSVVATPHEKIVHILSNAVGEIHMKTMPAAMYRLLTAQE
Assay: holdup assay
Design: key: below the threshold = too weak to quantify, mostly under pKd 3.1 to 4
Details: plain residues with an end cap or a label only (N-terminal biotin on a linker: ado-ado)

Binder	pKd
SRSVVESDEL [MYPN, Q86TC9]	below the threshold
KRPEMTSSSV [MUC3A, MUC3B, Q02505;Q9H195]	1.83

Molecular target: T3, APBA1_1, Q02410
T3 sequence (Q02410 651-752, limits assumed, looked up): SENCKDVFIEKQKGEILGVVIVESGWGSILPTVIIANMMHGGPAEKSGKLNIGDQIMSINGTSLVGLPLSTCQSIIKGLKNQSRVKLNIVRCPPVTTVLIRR
Assay: holdup assay
Design: key: below the threshold = too weak to quantify, mostly under pKd 3.1 to 4
Details: plain residues with an end cap or a label only (N-terminal biotin on a linker: ado-ado)

Binder	pKd
SRSVVESDEL [MYPN, Q86TC9]	below the threshold
KRPEMTSSSV [MUC3A, MUC3B, Q02505;Q9H195]	below the threshold

Molecular target: Inadl_4, Q8NI35
Sequence (Q8NI35 547-651): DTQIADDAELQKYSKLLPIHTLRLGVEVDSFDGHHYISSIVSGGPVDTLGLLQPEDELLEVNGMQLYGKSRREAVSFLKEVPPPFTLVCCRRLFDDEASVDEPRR
Assay: holdup assay
Design: key: below the threshold = too weak to quantify, mostly under pKd 3.1 to 4
Details: plain residues with an end cap or a label only (N-terminal biotin on a linker: ado-ado)

Binder	pKd
SRSVVESDEL [MYPN, Q86TC9]	below the threshold
KRPEMTSSSV [MUC3A, MUC3B, Q02505;Q9H195]	below the threshold

Molecular target: T4, MPP6, Q9NZW5
T4 sequence (Q9NZW5 125-219, limits assumed, looked up): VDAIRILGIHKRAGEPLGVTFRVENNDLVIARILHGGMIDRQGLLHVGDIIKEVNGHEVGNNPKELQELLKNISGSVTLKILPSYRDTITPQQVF
Assay: holdup assay
Design: key: below the threshold = too weak to quantify, mostly under pKd 3.1 to 4
Details: plain residues with an end cap or a label only (N-terminal biotin on a linker: ado-ado)

Binder	pKd
SRSVVESDEL [MYPN, Q86TC9]	below the threshold
KRPEMTSSSV [MUC3A, MUC3B, Q02505;Q9H195]	below the threshold

Molecular target: T5, PDZD7_3, Q9H5P4
T5 sequence (Q9H5P4 857-944, limits assumed, looked up): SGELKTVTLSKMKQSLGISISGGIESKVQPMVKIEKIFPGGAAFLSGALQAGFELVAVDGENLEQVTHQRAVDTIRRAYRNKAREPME
Assay: holdup assay
Design: key: below the threshold = too weak to quantify, mostly under pKd 3.1 to 4
Details: plain residues with an end cap or a label only (N-terminal biotin on a linker: ado-ado)

Binder	pKd
SRSVVESDEL [MYPN, Q86TC9]	3.75

Molecular target: DLG5_1, Q8TDM6
Sequence (Q8TDM6 617-713): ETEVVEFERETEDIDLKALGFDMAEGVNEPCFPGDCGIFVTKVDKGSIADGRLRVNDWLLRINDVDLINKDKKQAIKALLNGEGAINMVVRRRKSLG
Assay: holdup assay
Design: key: below the threshold = too weak to quantify, mostly under pKd 3.1 to 4
Details: plain residues with an end cap or a label only (N-terminal biotin on a linker: ado-ado)

Binder	pKd
SRSVVESDEL [MYPN, Q86TC9]	below the threshold

Molecular target: IL16_3, Q14005
Sequence (Q14005 1107-1207): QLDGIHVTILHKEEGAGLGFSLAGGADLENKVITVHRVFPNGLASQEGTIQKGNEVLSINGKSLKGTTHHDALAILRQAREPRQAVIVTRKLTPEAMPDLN
Assay: holdup assay
Design: key: below the threshold = too weak to quantify, mostly under pKd 3.1 to 4
Details: plain residues with an end cap or a label only (N-terminal biotin on a linker: ado-ado)

Binder	pKd
SRSVVESDEL [MYPN, Q86TC9]	below the threshold
KRPEMTSSSV [MUC3A, MUC3B, Q02505;Q9H195]	below the threshold

Molecular target: MAST1, Q9Y2H9
Sequence (Q9Y2H9 962-1065): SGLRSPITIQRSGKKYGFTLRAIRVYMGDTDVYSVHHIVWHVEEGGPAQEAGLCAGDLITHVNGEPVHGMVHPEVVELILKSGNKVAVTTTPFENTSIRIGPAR
Assay: holdup assay
Design: key: below the threshold = too weak to quantify, mostly under pKd 3.1 to 4
Details: plain residues with an end cap or a label only (N-terminal biotin on a linker: ado-ado)

Binder	pKd
SRSVVESDEL [MYPN, Q86TC9]	below the threshold
KRPEMTSSSV [MUC3A, MUC3B, Q02505;Q9H195]	4.17

Molecular target: NHERF2_2, Q15599
Sequence (Q15599 142-238): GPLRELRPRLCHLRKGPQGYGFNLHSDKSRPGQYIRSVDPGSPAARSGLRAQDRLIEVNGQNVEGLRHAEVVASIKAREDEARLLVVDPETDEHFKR
Assay: holdup assay
Design: key: below the threshold = too weak to quantify, mostly under pKd 3.1 to 4
Details: plain residues with an end cap or a label only (N-terminal biotin on a linker: ado-ado)

Binder	pKd
SRSVVESDEL [MYPN, Q86TC9]	3.86
KRPEMTSSSV [MUC3A, MUC3B, Q02505;Q9H195]	below the threshold

Molecular target: IL16_1, Q14005
Sequence (Q14005 210-306): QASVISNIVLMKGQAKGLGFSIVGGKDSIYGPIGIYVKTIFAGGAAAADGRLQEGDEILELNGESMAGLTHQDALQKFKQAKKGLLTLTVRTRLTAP
Assay: holdup assay
Design: key: below the threshold = too weak to quantify, mostly under pKd 3.1 to 4
Details: plain residues with an end cap or a label only (N-terminal biotin on a linker: ado-ado)

Binder	pKd
SRSVVESDEL [MYPN, Q86TC9]	below the threshold

Molecular target: DLG2_3, Q15700
Assay: holdup assay
Design: key: below the threshold = too weak to quantify, mostly under pKd 3.1 to 4
Details: plain residues with an end cap or a label only (N-terminal biotin on a linker: ado-ado)

Binder	pKd
SRSVVESDEL [MYPN, Q86TC9]	below the threshold
KRPEMTSSSV [MUC3A, MUC3B, Q02505;Q9H195]	3.88

Molecular target: T6, MPP7, Q5T2T1
T6 sequence (Q5T2T1 134-230, limits assumed, looked up): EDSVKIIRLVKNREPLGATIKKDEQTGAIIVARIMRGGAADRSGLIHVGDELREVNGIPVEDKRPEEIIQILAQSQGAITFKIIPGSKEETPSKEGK
Assay: holdup assay
Design: key: below the threshold = too weak to quantify, mostly under pKd 3.1 to 4
Details: plain residues with an end cap or a label only (N-terminal biotin on a linker: ado-ado)

Binder	pKd
SRSVVESDEL [MYPN, Q86TC9]	below the threshold
KRPEMTSSSV [MUC3A, MUC3B, Q02505;Q9H195]	below the threshold

Molecular target: T7, GRIP1_4, Q9Y3R0
T7 sequence (Q9Y3R0 467-571, limits assumed, looked up): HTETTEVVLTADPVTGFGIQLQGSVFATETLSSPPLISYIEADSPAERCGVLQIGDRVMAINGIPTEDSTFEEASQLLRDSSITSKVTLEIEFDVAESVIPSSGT
Assay: holdup assay
Design: key: below the threshold = too weak to quantify, mostly under pKd 3.1 to 4
Details: plain residues with an end cap or a label only (N-terminal biotin on a linker: ado-ado)

Binder	pKd
SRSVVESDEL [MYPN, Q86TC9]	below the threshold

Molecular target: T8, APBA2_2, Q99767
T8 sequence (Q99767 654-744, limits assumed, looked up): T2 sequence (Q02410 742-832, limits assumed, looked up) with R10K, R15K, P59A, H65Q, I66A, A70S, Y84F, A89G
Assay: holdup assay
Design: key: below the threshold = too weak to quantify, mostly under pKd 3.1 to 4
Details: plain residues with an end cap or a label only (N-terminal biotin on a linker: ado-ado)

Binder	pKd
SRSVVESDEL [MYPN, Q86TC9]	below the threshold
KRPEMTSSSV [MUC3A, MUC3B, Q02505;Q9H195]	below the threshold

Molecular target: T9, DFNB31_1, Q9P202
T9 sequence (Q9P202 135-233, limits assumed, looked up): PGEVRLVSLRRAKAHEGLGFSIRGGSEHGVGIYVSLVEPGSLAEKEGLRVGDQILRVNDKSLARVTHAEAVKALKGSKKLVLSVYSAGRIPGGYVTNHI
Assay: holdup assay
Design: key: below the threshold = too weak to quantify, mostly under pKd 3.1 to 4
Details: plain residues with an end cap or a label only (N-terminal biotin on a linker: ado-ado)

Binder	pKd
SRSVVESDEL [MYPN, Q86TC9]	below the threshold

Molecular target: T10, ARHGEF11, O15085
T10 sequence (O15085 42-136, limits assumed, looked up): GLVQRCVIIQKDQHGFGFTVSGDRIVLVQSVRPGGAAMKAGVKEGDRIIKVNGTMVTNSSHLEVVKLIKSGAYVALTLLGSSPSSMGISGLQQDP
Assay: holdup assay
Design: key: below the threshold = too weak to quantify, mostly under pKd 3.1 to 4
Details: plain residues with an end cap or a label only (N-terminal biotin on a linker: ado-ado)

Binder	pKd
SRSVVESDEL [MYPN, Q86TC9]	3.74
KRPEMTSSSV [MUC3A, MUC3B, Q02505;Q9H195]	3.74

Molecular target: PARD3_3, Q8TEW0
Sequence (Q8TEW0 582-685): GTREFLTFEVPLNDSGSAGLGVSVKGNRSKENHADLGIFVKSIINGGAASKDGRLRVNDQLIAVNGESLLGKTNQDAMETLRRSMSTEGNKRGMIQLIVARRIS
Assay: holdup assay
Design: key: below the threshold = too weak to quantify, mostly under pKd 3.1 to 4
Details: plain residues with an end cap or a label only (N-terminal biotin on a linker: ado-ado)

Binder	pKd
SRSVVESDEL [MYPN, Q86TC9]	below the threshold
KRPEMTSSSV [MUC3A, MUC3B, Q02505;Q9H195]	below the threshold

Molecular target: T11, DLG3_3, Q92796
T11 sequence (Q92796 374-475, limits assumed, looked up): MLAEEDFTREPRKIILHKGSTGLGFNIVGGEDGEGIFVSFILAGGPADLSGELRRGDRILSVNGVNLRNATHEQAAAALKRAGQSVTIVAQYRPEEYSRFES
Assay: holdup assay
Design: key: below the threshold = too weak to quantify, mostly under pKd 3.1 to 4
Details: plain residues with an end cap or a label only (N-terminal biotin on a linker: ado-ado)

Binder	pKd
SRSVVESDEL [MYPN, Q86TC9]	below the threshold
KRPEMTSSSV [MUC3A, MUC3B, Q02505;Q9H195]	1.84

Molecular target: T12, GRIP1_3, Q9Y3R0
T12 sequence (Q9Y3R0 247-346, limits assumed, looked up): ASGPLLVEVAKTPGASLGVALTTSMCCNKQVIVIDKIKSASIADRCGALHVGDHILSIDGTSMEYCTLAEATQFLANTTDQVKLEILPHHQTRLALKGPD
Assay: holdup assay
Design: key: below the threshold = too weak to quantify, mostly under pKd 3.1 to 4
Details: plain residues with an end cap or a label only (N-terminal biotin on a linker: ado-ado)

Binder	pKd
SRSVVESDEL [MYPN, Q86TC9]	below the threshold
KRPEMTSSSV [MUC3A, MUC3B, Q02505;Q9H195]	below the threshold

Molecular target: GRID2IP_2, A4D2P6
Sequence (A4D2P6 272-370): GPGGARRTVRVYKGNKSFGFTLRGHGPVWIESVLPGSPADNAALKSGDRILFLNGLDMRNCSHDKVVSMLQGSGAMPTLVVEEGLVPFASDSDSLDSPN
Assay: holdup assay
Design: key: below the threshold = too weak to quantify, mostly under pKd 3.1 to 4
Details: plain residues with an end cap or a label only (N-terminal biotin on a linker: ado-ado)

Binder	pKd
SRSVVESDEL [MYPN, Q86TC9]	below the threshold
KRPEMTSSSV [MUC3A, MUC3B, Q02505;Q9H195]	3.73

Molecular target: T13, GRIP1_2, Q9Y3R0
T13 sequence (Q9Y3R0 145-248, limits assumed, looked up): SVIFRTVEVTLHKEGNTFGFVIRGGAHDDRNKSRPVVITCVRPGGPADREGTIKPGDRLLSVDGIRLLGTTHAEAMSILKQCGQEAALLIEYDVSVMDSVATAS
Assay: holdup assay
Design: key: below the threshold = too weak to quantify, mostly under pKd 3.1 to 4
Details: plain residues with an end cap or a label only (N-terminal biotin on a linker: ado-ado)

Binder	pKd
SRSVVESDEL [MYPN, Q86TC9]	below the threshold
KRPEMTSSSV [MUC3A, MUC3B, Q02505;Q9H195]	below the threshold

Molecular target: T14, HTRA4, P83105
T14 sequence (P83105 378-476, limits assumed, looked up): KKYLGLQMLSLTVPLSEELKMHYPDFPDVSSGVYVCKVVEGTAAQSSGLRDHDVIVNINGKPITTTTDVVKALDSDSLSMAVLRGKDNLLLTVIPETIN
Assay: holdup assay
Design: key: below the threshold = too weak to quantify, mostly under pKd 3.1 to 4
Details: plain residues with an end cap or a label only (N-terminal biotin on a linker: ado-ado)

Binder	pKd
SRSVVESDEL [MYPN, Q86TC9]	below the threshold
KRPEMTSSSV [MUC3A, MUC3B, Q02505;Q9H195]	below the threshold
